Columns and labels:
[1] = target: T1, GTP-loaded Ras1.G17V (1-172) (Schizosaccharomyces pombe (fission …, UniProt P08647 1-172, G17V)); test: pull-down; GST-Byr2 (65-180) or GST-Scd1 (760-872) on glutathione sepharose 4B beads, GTP-loaded Ras1.G17V (1-172) added; buffer A (20 mM Tris-Cl pH 7.5, 100 mM NaCl, 5 mM MgCl2, 1 mM beta-mercaptoethanol), 4 C, 30 min; bound fraction on SDS-PAGE, InstantBlue stain; conditions: both partners purified
T1 construct: stopped with 20.5 mM MgCl2) just before the pull-down; Cloned in the vector pLEICS1; also called Ras1.G17V^GTP; source: E. coli BL21 Rosetta, purified (Ni Sepharose 6 Fast Flow), loaded with GTP
T1 sequence (looked up): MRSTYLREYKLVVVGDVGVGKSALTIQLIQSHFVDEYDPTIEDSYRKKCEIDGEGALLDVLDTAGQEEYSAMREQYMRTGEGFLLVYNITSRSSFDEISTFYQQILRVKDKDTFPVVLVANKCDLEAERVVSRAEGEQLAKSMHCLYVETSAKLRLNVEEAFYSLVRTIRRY

[2] = target: T1, GTP-loaded Ras1.G17V (1-172); test: pull-down; competition: GST-Byr2 (65-180) on glutathione beads, GTP-loaded Ras1.G17V (1-172) with or without the Scd1 (760-872) fragment; buffer A, 4 C, 30 min; Ras1.G17V band on the stained gel quantified with Fiji; conditions: both partners purified

B1: GST-Byr2 (65-180) (domain or fragment, UniProt P28829 65-180, looked up)
chain: REFPRPCILRFIACNGQTRAVQSRGDYQKTLAIALKKFSLEDASKFIVCVSQSSRIKLITEEEFKQICFNSSSPERDRLIIVPKEKPCPSFEDLRRSWEIELAQPAALSSQSSLSP
notes: Cloned in the vector pLEICS4; also called GST-Byr2-RBD; Byr2-RBD; source: E. coli BL21 Rosetta, purified (glutathione sepharose 4B), kept on the beads; not shown: GST, N-terminal, kept
- binding result [1]: binds

B2: GST-Scd1 (760-872) (domain or fragment, UniProt P40995 760-872, looked up)
chain: SSSTSTSLSVRNTTNVKIRLRLHEVSLVLVVAHDITFDELLAKVEHKIKLCGILKQAVPFRVRLKYVDEDGDFITITSDEDVLMAFETCTFELMDPVHNKGMDTVSLHVVVYF
notes: Cloned in the vector pLEICS4; also called GST-Scd1-PB1; Scd1-PB1; source: E. coli BL21 Rosetta, purified (glutathione sepharose 4B), kept on the beads; not shown: GST, N-terminal, kept
- binding result [1]: binds

B3: Scd1 (760-872) fragment (domain or fragment, UniProt P40995 760-872, looked up)
chain: SSSTSTSLSVRNTTNVKIRLRLHEVSLVLVVAHDITFDELLAKVEHKIKLCGILKQAVPFRVRLKYVDEDGDFITITSDEDVLMAFETCTFELMDPVHNKGMDTVSLHVVVYF
notes: legend and methods say the fragment freed of GST; also called Scd1-PB1; source: E. coli BL21 Rosetta; not shown: GST, N-terminal, cleaved
- binding result [2]: binds
